Reference: patent publication US20040001822A1, “Y1-isolated molecules comprising epitopes containing sulfated moieties, antibodies to such epitopes, and uses thereof” (priority 2000, published 2004)

Tests used:
[1] = tested on: platelet-rich-plasma (PRP); experiment: Ristocetin-induced aggregation of platelet-rich plasma after preincubation with scFv; type: cell-based, human; details: scFv 25 μg/ml
Experimental: The effect of Y1 (scfv) on aggregation of platelet-rich-plasma (PRP) was tested at various concentrations of Y1. PRP was pre-incubated with Y1 scfv, Y17 scfv, or a control sTM-1cFv for 4 min at 37° C. before being exposed to ristocetin, an inducer of platelet agglutination and aggregation. A reversible inhibitory effect was observed when scFv was added to PRP prior to the addition of ristocetin, and it was dose dependent.
Blood was collected into a tube containing 3.8% sodium citrate. Platelet-rich plasma was prepared by centrifugation at 250×g for 10 minutes.
(§1) For platelet aggregation studies, platelet rich plasma (PRP) and washed platelets were stirred at 500 rpm at 37° C. in whole blood Lumiaggregometer (Chronolog, Havertown,Pa.). The difference in light transmission through the platelet suspension and suspending medium was taken as 100% aggregation. The effect of Y1 on platelet aggregation was evaluated by addition of different concentration of Y1 before the addition of agonist, and the effect was recorded for four minutes.

washed platelets = experiment: Effect of Y1-IgG on agglutination of washed platelets with or without ristocetin; type: cell-based, human; details: IgG 1 μg/ml
Source text: Due to its natural structure the full IgG Y1 has two binding sites on GPIbα and one binding site for an Fc receptor. It is likely that if full IgG Y1 binds two GPIbα molecules, it will activate platelets and induce platelet agglutination. Furthermore, because platelets have an Fc-receptor, Y1-IgG can induce platelet agglutination by binding to GPIbα and to an Fc-receptor, thereby producing platelet agglutination by each IgG Y1 binding to three platelets. Therefore, the effect of IgG Y1 on aggregation of washed platelets was tested at different concentrations of Y1-IgG in the presence or absence of ristocetin. Induction of platelet aggregation by Y1-IgG was monitored for 4 min at 37° C., followed by addition of ristocetin.
The results are presented in Table 6 and FIG. 17 without agonist. Y1-IgG alone at a final concentration of 50 μg/ml induced platelet agglutination ˜39% of normal agglutination of washed platelets. Induction of platelet agglutination by Y1-IgG was tested for 4 min at 37° C., followed by addition of ristocetin. […]
as §1, with “The difference in light transmission through the platelet suspension and suspending medium was taken as 100% aggregation.” left out

B1: Y1 scFv: fully human scFv clone binding platelets and myelogenous leukemia cells, SEQ ID NO: 25 (protein, listed as Homo sapiens)
scFv: MKYLLPTAAAGLLLLAAQPAMAEVQLVESGGGVVRPGGSLRLSCAASGFTFDDYGMSWVRQAPGKGLEWVSGINWNGGSTGYADSVKGRFTISRDNAKNSLYLQMNSLRAEDTAVYYCARMRAPVIWGQGTLVTVSRGGGGSGGGGSGGGGSSELTQDPAVSVALGQTVRITCQGDSLRSYYASWYQQKPGQAPVLVIYGKNNRPSGIPDRFSGSSSGNTASLTITGAQAEDEADYYCNSRDSSGNHVVFGGGTKLTVLGAAAEQKLISEEDLNGAA
With B1 the “% aggregation” value [1] was 87%, the “% inhibition” value ([1]; listed as Y1) was “no significant inhibition” and the “% agglutination Without ristocetin” value (washed platelets) was “no induction”.
